Measurements as given in patent US20050260575, “Method for identifying substances useful for treating inflammation using the response element to the ikbalpha ror receptor” (published 2005).

B1: IκBα-RORE mutant (dsDNA)
DNA 1: GAGCACAATGTACCTCAGATAG
DNA 2: CTATCTGAGGTACATTGTGCTC
B2: IκBα-RORE (dsDNA)
DNA 1: GAGCACAATGTAGGTCAGATAG
DNA 2: CTATCTGACCTACATTGTGCTC

Legend:
[1] = target: T1, RORα1 (Homo sapiens, UniProt P35398 P35398:1-523); assay: competition; unlabelled mutated competitor 1x-100x used as specificity control; full oligo sequence not stated, SEQ 15 matches the ACCTCA mutation; details: tags: TNT-T7 Promega; hRORα1
T1 sequence: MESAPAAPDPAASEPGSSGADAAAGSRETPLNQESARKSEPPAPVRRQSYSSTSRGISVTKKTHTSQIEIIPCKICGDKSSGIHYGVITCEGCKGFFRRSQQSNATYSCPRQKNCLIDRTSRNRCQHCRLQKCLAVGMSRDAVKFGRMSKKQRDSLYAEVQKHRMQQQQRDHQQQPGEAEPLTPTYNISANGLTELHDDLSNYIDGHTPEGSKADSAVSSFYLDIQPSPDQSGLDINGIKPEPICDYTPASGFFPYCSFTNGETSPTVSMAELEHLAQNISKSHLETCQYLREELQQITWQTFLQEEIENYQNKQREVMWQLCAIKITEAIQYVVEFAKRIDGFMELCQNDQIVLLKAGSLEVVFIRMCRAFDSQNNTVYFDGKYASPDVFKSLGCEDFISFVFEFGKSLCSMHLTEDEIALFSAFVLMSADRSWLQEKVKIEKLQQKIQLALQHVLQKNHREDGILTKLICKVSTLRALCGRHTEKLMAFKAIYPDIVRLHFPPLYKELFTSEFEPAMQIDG
Experimental: (§1) FIG. 6C depicts the gel shift experiments conducted by using the in vitro translated RORαl protein (TNT-T7 Promega) and an IκBα-RORE labelled probe. […] To […] the mobility of the complex, 1 μl of RORα1 antibody was added to the binding reaction (S: shift of the complex; SS: super-shift of the complex; FP: unbound probe).
(§2) It has been shown that the negative dominant RORαΔ235 missing the LBD domain inhibits RORα1-induced transcription by competing with the same DNA binding domain (Mc Broom, L. D. B., Flock, G. and Giguère, V., Mol. Cell. Biol. 1995, 15: 796-808). The effect of this mutant on the promoter under the control of the IκBα gene RORE inducible by RORα1 was tested. Cotransfection with RORαΔ235 abolished the effect of RORα1 (FIG. 6B). […] Finally, binding of RORα1 to its response element RORE was checked by gel shift assays, using in vitro translated RORα1 protein.

[2] = target: T1, RORα1; assay: EMSA; supershift with RORα1 antibody; native competitor 1x-100x; exact probe length not stated; details: tags: TNT-T7 Promega; hRORα1; label: labelled probe
Experimental: as §1, §2

Row | Binder | binding result [1] | binding result [2]
1 | B1 | no binding | –
2 | B2 | – | binds
